Results reported in the supplement of paper PMC7125110.
± gives the standard error. Fewer inactive variants are shown than the library holds.

B1: glmS ribozyme (parent)
chain: AUAAAAGCGCCAGAACUACAGAAAUGUAGUUGACGAGGAGGAGGUUUAUCGAAUUUUCGGCGGAUGCCUCCAAA

How the values were obtained:
Conditions in all cases: with glucosamine-6-phosphate
glucosamine-6-phosphate [1] = variants of: B1; assay: self-cleavage kobs at 160 uM GlcN6P; higher = faster cleavage; RNA array
Method in brief: (§1)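 The measurements used barcoded ribozyme variants on sequenced MiSeq chips, transcribed in situ by E. coli RNA polymerase and tracked at 37 °C with a hybridised Cy3 probe. Glucosamine-6-phosphate, 40 μM to 10 mM in HEPES/KCl/Mg(OAc)2 buffer, was flowed in while tiles were imaged over ~14 h. Baseline-normalised signals, also normalised to non-cleaving reference variants, gave per-tile medians that were fit to one- or two-exponential decays for kobs. kcat and KM resulted from weighted Michaelis–Menten fits across concentrations.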

glucosamine-6-phosphate [2] = variants of: B1; assay: self-cleavage kobs at 640 uM GlcN6P; higher = faster cleavage; RNA array
Method in brief: as §1

glucosamine-6-phosphate [3] = variants of: B1; assay: self-cleavage kobs at 2500 uM GlcN6P; higher = faster cleavage; RNA array
Method in brief: as §1

glucosamine-6-phosphate [4] = variants of: B1; assay: self-cleavage kobs at 10000 uM GlcN6P; higher = faster cleavage; RNA array
Method in brief: as §1

| Variant | self-cleavage kobs at 160 uM GlcN6P (glucosamine-6-phosphate [1]) | self-cleavage kobs at 640 uM GlcN6P (glucosamine-6-phosphate [2]) | self-cleavage kobs at 2500 uM GlcN6P (glucosamine-6-phosphate [3]) | self-cleavage kobs at 10000 uM GlcN6P (glucosamine-6-phosphate [4]) |
| --- | --- | --- | --- | --- |
| A14G G35U G66U | < 1e-05 s⁻¹ | < 1e-05 s⁻¹ | – | – |
| G37C G41C | < 1e-05 s⁻¹ | < 1e-05 s⁻¹ | < 1e-05 s⁻¹ | – |
| G13C A52G C70G | 0.000297 ± 0.00012 s⁻¹ | 0.000164 ± 5.2e-05 s⁻¹ | 7.21e-05 ± 3e-05 s⁻¹ | – |
| A33U G63C | < 1e-05 s⁻¹ | < 1e-05 s⁻¹ | < 1e-05 s⁻¹ | < 1e-05 s⁻¹ |
| C16G G44C | < 1e-05 s⁻¹ | < 1e-05 s⁻¹ | – | – |
| G9U G13C A42U | < 1e-05 s⁻¹ | < 1e-05 s⁻¹ | < 1e-05 s⁻¹ | – |
| A33C C50A C71G | < 1e-05 s⁻¹ | – | – | – |
| C8U A33G G37U G43C U54A U56C C67U | < 1e-05 s⁻¹ | < 1e-05 s⁻¹ | < 1e-05 s⁻¹ | – |
| G13U G41C A42U U65C | < 1e-05 s⁻¹ | < 1e-05 s⁻¹ | < 1e-05 s⁻¹ | – |
| C8A A12U C16G G41A C68A | < 1e-05 s⁻¹ | < 1e-05 s⁻¹ | < 1e-05 s⁻¹ | – |
| G7A G9U C58A | < 1e-05 s⁻¹ | < 1e-05 s⁻¹ | – | – |
| C16A G37C G59C | < 1e-05 s⁻¹ | < 1e-05 s⁻¹ | – | – |
| G32U A42U | < 1e-05 s⁻¹ | < 1e-05 s⁻¹ | – | – |
| C8A A53U U55C C58U U69C | < 1e-05 s⁻¹ | – | – | – |
| G7U G41C A52G | < 1e-05 s⁻¹ | < 1e-05 s⁻¹ | < 1e-05 s⁻¹ | < 1e-05 s⁻¹ |
| G43U G59U G63U C68A | < 1e-05 s⁻¹ | < 1e-05 s⁻¹ | < 1e-05 s⁻¹ | – |
| G44U U49A U54A G62U | < 1e-05 s⁻¹ | < 1e-05 s⁻¹ | < 1e-05 s⁻¹ | – |
| A14U U30C G43C G66C | < 1e-05 s⁻¹ | – | – | – |
| C16U A42U C67G | 6.07e-05 ± 1.8e-05 s⁻¹ | 0.000203 ± 6.8e-05 s⁻¹ | 0.000631 ± 0.00021 s⁻¹ | – |
| G7A G29U | < 1e-05 s⁻¹ | < 1e-05 s⁻¹ | – | – |
| A33U G37A | < 1e-05 s⁻¹ | – | – | – |
| C11G A14U G35U C70G | 0.000125 ± 4.5e-05 s⁻¹ | 0.000575 ± 0.0002 s⁻¹ | 0.00022 ± 8.2e-05 s⁻¹ | 0.000257 ± 5.4e-05 s⁻¹ |
| U31C C58A A64C | < 1e-05 s⁻¹ | – | < 1e-05 s⁻¹ | – |
| G13U G32U C34A G44A | < 1e-05 s⁻¹ | – | < 1e-05 s⁻¹ | – |
| C11G G13U U45C | < 1e-05 s⁻¹ | – | – | – |
| G38U G41A C58A C61A | < 1e-05 s⁻¹ | < 1e-05 s⁻¹ | – | – |
